Measured values published in patent US20060062761A1.

Target: HLA-DR DRB1*0701 on fixed MOU (MANN) cells (human)
Assay: competition

For “Tetanus toxin 828-840 (from UniProt P04958 828-840)”, the IC50 was 7 µM.
